Results from patent publication US20220362357A1, “Synergistic Combinations of Amino Acid Depletion Agent Sensitizers (AADAS) and Amino Acid Depletion Agents (AADA), and Therapeutic Methods of Use Thereof” (STICHTING RADBOUD UNIVERSITAIR MEDISCH CENTRUM, priority 2018, published 2022).

Legend:
Test in all cases: PDX ALL cells co-cultured on hTERT MSCs, ASNase x ibrutinib dilution matrix, microscopy
Assay type in all cases: cell-based, human
PDX m1095 = details: m1095 (3 d), ibrutinib B0=0 to B9=100
Protocol: (§1) After 2-4 months these mice developed full blown leukemia with an immunophenotype and genetic composition that in the large majority of cases is identical to the original material at the time of injection.
(§2) Briefly, hTERT immortalized MSCs were seeded in either a 384 wells format (microscopy) or a 96 wells format (7AAD staining) and allowed to settle for 24 hours prior to the addition of ALL xenografts. […] After 3 and 7 days of incubation, cell death was analyzed using microscopy using live cells staining or flowcytometry using 7AAD to discriminate between live or dead cells.

PDX m1338 = details: m1338 (7 d), ibrutinib B0=0 to B9=100
Protocol: as §1, §2

PDX m1600 = details: m1600 (3 d), ibrutinib B0=0 to B9=100
Protocol: as §1, §2

PDX m1717 = details: m1717 (3 d), ibrutinib B0=0 to B9=100
Protocol: as §1, §2

PDX m3657 = details: m3657 (7 d), ibrutinib B0=0 to B9=100
Protocol: as §1, §2

PDX m3810 = details: m3810 (3 d), ibrutinib B0=0 to B9=100
Protocol: as §1, §2

B1: ASNase: native E. coli ASNase (NCBI WP_000394140.1), used in the in vitro studies (protein, UniProt P00805 23-348, looked up)
L-asparaginase 2: LPNITILATGGTIAGGGDSATKSNYTVGKVGVENLVNAVPQLKDIANVKGEQVVNIGSQDMNDNVWLTLAKKINTDCDKTDGFVITHGTDTMEETAYFLDLTVKCDKPVVMVGAMRPSTSMSADGPFNLYNAVVTAADKASANRGVLVVMNDTVLDGRDVTKTNTTDVATFKSVNYGPLGYIHNGKIDYQRTPARKHTSDTPFDVSKLNELPKVGIVYNYANASDLPAKALVDAGYDGIVSAGVGNGNLYKSVFDTLATAAKTGTAVVRSSRVPTGATTQDAEVDDAKYGFVASGTLNPQKARVLLQLALTQTKDPQQIQQIFNQY
B1 was tested, and the “live cells by automated microscopy (table names no quantity)” value (shortened to “live cells … (table names no quantity)”) (PDX m1095; ASNase A1=0.01) was 2935, the “live cells … (table names no quantity)” value (PDX m1095; ASNase A2=0.03) was 2914 and the “live cells … (table names no quantity)” value (PDX m1095; ASNase A3=0.1) was 3089. For the same molecule, the “live cells … (table names no quantity)” value (PDX m1095; ASNase A4=0.3) was 3205, the “live cells … (table names no quantity)” value (PDX m1095; ASNase A5=1) was 2579 and the “live cells … (table names no quantity)” value (PDX m1095; ASNase A6=3) was 549. For the same molecule, the “live cells … (table names no quantity)” value (PDX m1095; ASNase A7=10) was 2033, the “live cells … (table names no quantity)” value (PDX m1095; ASNase A8=32) was 238 and the “live cells … (table names no quantity)” value (PDX m1095; ASNase A9 (A=100)) was 30. The “live cells … (table names no quantity)” value (PDX m1338; ASNase A1=0.01) was 2207, the “live cells … (table names no quantity)” value (PDX m1338; ASNase A2=0.03) was 3174 and the “live cells … (table names no quantity)” value (PDX m1338; ASNase A3=0.1) was 2916. For the same molecule, the “live cells … (table names no quantity)” value (PDX m1338; ASNase A4=0.3) was 2372, the “live cells … (table names no quantity)” value (PDX m1338; ASNase A5=1) was 2788 and the “live cells … (table names no quantity)” value (PDX m1338; ASNase A6=3) was 2166. For the same molecule, the “live cells … (table names no quantity)” value (PDX m1338; ASNase A7=10) was 1468, the “live cells … (table names no quantity)” value (PDX m1338; ASNase A8=32) was 292 and the “live cells … (table names no quantity)” value (PDX m1338; ASNase A9 (A=100)) was 1. For the same molecule, the “live cells … (table names no quantity)” value (PDX m1600; ASNase A1=0.01) was 4146, the “live cells … (table names no quantity)” value (PDX m1600; ASNase A2=0.03) was 4603 and the “live cells … (table names no quantity)” value (PDX m1600; ASNase A3=0.1) was 3714. For the same molecule, the “live cells … (table names no quantity)” value (PDX m1600; ASNase A4=0.3) was 3134, the “live cells … (table names no quantity)” value (PDX m1600; ASNase A5=1) was 4045 and the “live cells … (table names no quantity)” value (PDX m1600; ASNase A6=3) was 4366. The “live cells … (table names no quantity)” value (PDX m1600; ASNase A7=10) was 3730, the “live cells … (table names no quantity)” value (PDX m1600; ASNase A8=32) was 487 and the “live cells … (table names no quantity)” value (PDX m1600; ASNase A9 (A=100)) was 4. The “live cells … (table names no quantity)” value (PDX m1717; ASNase A1=0.01) was 5977, the “live cells … (table names no quantity)” value (PDX m1717; ASNase A2=0.03) was 6674 and the “live cells … (table names no quantity)” value (PDX m1717; ASNase A3=0.1) was 5155. For the same molecule, the “live cells … (table names no quantity)” value (PDX m1717; ASNase A4=0.3) was 6700, the “live cells … (table names no quantity)” value (PDX m1717; ASNase A5=1) was 6589 and the “live cells … (table names no quantity)” value (PDX m1717; ASNase A6=3) was 5782. For the same molecule, the “live cells … (table names no quantity)” value (PDX m1717; ASNase A7=10) was 3762, the “live cells … (table names no quantity)” value (PDX m1717; ASNase A8=32) was 571 and the “live cells … (table names no quantity)” value (PDX m1717; ASNase A9 (A=100)) was 24. For the same molecule, the “live cells … (table names no quantity)” value (PDX m3657; ASNase A1=0.01) was 3562, the “live cells … (table names no quantity)” value (PDX m3657; ASNase A2=0.03) was 4473 and the “live cells … (table names no quantity)” value (PDX m3657; ASNase A3=0.1) was 4173. For the same molecule, the “live cells … (table names no quantity)” value (PDX m3657; ASNase A4=0.3) was 1159, the “live cells … (table names no quantity)” value (PDX m3657; ASNase A5=1) was 3935 and the “live cells … (table names no quantity)” value (PDX m3657; ASNase A6=3) was 3317. The “live cells … (table names no quantity)” value (PDX m3657; ASNase A7=10) was 4220, the “live cells … (table names no quantity)” value (PDX m3657; ASNase A8=32) was 723 and the “live cells … (table names no quantity)” value (PDX m3657; ASNase A9 (A=100)) was 17. The “live cells … (table names no quantity)” value (PDX m3810; ASNase A1=0.01) was 1232, the “live cells … (table names no quantity)” value (PDX m3810; ASNase A2=0.03) was 2209 and the “live cells … (table names no quantity)” value (PDX m3810; ASNase A3=0.1) was 1405. For the same molecule, the “live cells … (table names no quantity)” value (PDX m3810; ASNase A4=0.3) was 1982, the “live cells … (table names no quantity)” value (PDX m3810; ASNase A5=1) was 1472 and the “live cells … (table names no quantity)” value (PDX m3810; ASNase A6=3) was 1497. The “live cells … (table names no quantity)” value (PDX m3810; ASNase A7=10) was 1054, the “live cells … (table names no quantity)” value (PDX m3810; ASNase A8=32) was 268 and the “live cells … (table names no quantity)” value (PDX m3810; ASNase A9 (A=100)) was 8.
